According to paper PMC5079754 (Biochimica et biophysica acta, 2016):

Assays:
[1] = biological target: Lmod2s1 (N-terminal residues 2-41 of leiomodin-2) (human) (UniProt Q6P5Q4); test: NMR titration; settings: scale: two-chained αTM1a_(1-14)Zip molecule per Lmod2s1
[2] = biological target: Tmod1s1 (res. 1–38 of Tmod1); test: CD thermal unfolding at 222 nm of Tpm1.1 model peptide complexes with Tmod1s1; type: binding, Gallus gallus
[3] = peptide alone, versus WT αTM1a1-21Zip
[4] = biological target: Lmod2s1 (N-terminal residues 2-41 of leiomodin-2) (human) (UniProt Q6P5Q4); test: circular dichroism, thermal unfolding
[5] = biological target: Tmod1s1 peptide (residues 1-38 of tropomodulin-1) (Gallus gallus); test: circular dichroism, thermal unfolding

UniProt Q6P5Q4, sequence (Q6P5Q4 2-41): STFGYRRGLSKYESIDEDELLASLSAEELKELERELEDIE

| Kd [4] [nM] | Kd [5] [nM] | Substance | other results |
| --- | --- | --- | --- |
| – | – | αTM1a_(1-14)Zip, model Tpm1.1 peptide (from UniProt P09493-1 1-14) | stoichiometry N [1]: 1 |
| – | – | H-GMDAIKKKMQMLKLDNENALDRNYHLENEVARLKKLVGER-OH [αTM1a1–21Zip[K15N]] | Kd ([2]; read-out: Kd (30°C,µM), Tmod1s1, 30°C, Kd=exp(−ΔΔG/RT) from CD unfolding of the complex and of the Tpm1.1 peptide alone, 40 µM equimolar, 10 mM sodium phosphate pH 7.0, 100 mM NaCl, duplicates): 3.77 ± 0.01 µM; fold reduction of affinity of Tmod1s1 by the K15N mutation ([2]; versus WT αTM1a1-21Zip, P<0.001, One Way ANOVA): four-fold; decrease in the Tm caused by the K15N mutation [3]: ~ 6 °C |
| 370 | 1000 | αTM1a_(1-21)Zip, model Tpm1.1 peptide (from UniProt P09493-1 1-21) | – |
| 2310 | 3770 | αTM1a_(1-21)Zip[K15N], model Tpm1.1 peptide with the dilated cardiomyopathy-associated mutation K15N (from UniProt P09493-1 1-21) | – |
